Measured values taken from patent US20200262877A1, “ION CHANNEL-BINDING PEPTIDES AND METHODS OF USE THEREOF” (priority 2017, published 2020).

Experiments:
TRPV1 = molecular target: T1, TRPV1 (Homo sapiens, UniProt Q8NER1); assay: Ion channel panel (IonWorks Barracuda): TRPV1; assay type: cell-based; settings: 100% = no change, <100% = inhibition
T1 construct: host or cells: HEK293 or CHO
How it was run: (§1)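 Transfected HEK293 or CHO cells were exposed for at least 5 min to peptides at 200 nM and 20 μM final, tested in duplicate, in HEPES-buffered physiological saline. Activation was taken as peptide-plus-agonist current over control current ×100, and inhibition as 1 minus that ratio ×100. Each channel's control was its own reference compound.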

α3β4 = molecular target: T2, α3β4 (Homo sapiens, UniProt P30926+P32297); assay: Ion channel panel (IonWorks Barracuda): α3β4; assay type: cell-based; settings: 100% = no change, <100% = inhibition
T2 construct: host or cells: HEK293 or CHO
How it was run: as §1

NR2A = molecular target: T3, NR2A (Homo sapiens, UniProt Q12879); assay: Ion channel panel (IonWorks Barracuda): NR2A; assay type: cell-based; settings: 100% = no change, <100% = inhibition
T3 construct: host or cells: HEK293 or CHO
How it was run: as §1

5HT3a = molecular target: T4, 5HT3a (Homo sapiens, UniProt P46098); assay: Ion channel panel (IonWorks Barracuda): 5HT3a; assay type: cell-based
T4 construct: host or cells: HEK293 or CHO
T4 sequence (P46098 whole entry, looked up): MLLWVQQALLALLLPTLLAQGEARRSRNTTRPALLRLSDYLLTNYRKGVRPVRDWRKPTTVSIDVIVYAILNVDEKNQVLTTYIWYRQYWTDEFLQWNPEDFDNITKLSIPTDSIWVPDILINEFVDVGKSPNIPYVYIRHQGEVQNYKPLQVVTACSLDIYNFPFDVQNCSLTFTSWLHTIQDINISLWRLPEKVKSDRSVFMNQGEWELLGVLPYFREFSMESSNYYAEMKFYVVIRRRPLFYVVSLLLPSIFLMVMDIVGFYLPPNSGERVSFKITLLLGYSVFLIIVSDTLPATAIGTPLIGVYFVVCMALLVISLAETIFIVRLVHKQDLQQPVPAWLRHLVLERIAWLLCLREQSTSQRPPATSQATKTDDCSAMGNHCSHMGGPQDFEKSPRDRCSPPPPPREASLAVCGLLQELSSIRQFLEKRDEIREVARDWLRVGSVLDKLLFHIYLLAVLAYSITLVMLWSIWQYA
How it was run: as §1

TRPA1 = molecular target: T5, TRPA1 (Homo sapiens, UniProt O75762); assay: Ion channel panel (IonWorks Barracuda): TRPA1; assay type: cell-based; settings: 100% = no change, <100% = inhibition
T5 construct: host or cells: HEK293 or CHO
How it was run: as §1

Kv1.2 = molecular target: T6, Kv1.2 (Homo sapiens, UniProt P16389); assay: cell-based; assay type: cell-based; settings: 100% = no change, <100% = inhibition
T6 construct: host or cells: HEK293 or CHO
How it was run: as §1

Kv1.3 = molecular target: T7, Kv1.3 (Homo sapiens, UniProt P22001); assay: cell-based; assay type: cell-based; settings: 100% = no change, <100% = inhibition
T7 construct: host or cells: HEK293 or CHO
How it was run: as §1

Kv1.1 = molecular target: T8, Kv1.1 (Homo sapiens, UniProt Q09470); assay: cell-based; assay type: cell-based; settings: 100% = no change, <100% = inhibition
T8 construct: host or cells: HEK293 or CHO
How it was run: as §1

Cav2.1 = molecular target: T9, Cav2.1 (Homo sapiens, UniProt O00555); assay: cell-based; settings: 100% = no change, <100% = inhibition
T9 construct: host or cells: HEK293 or CHO
How it was run: as §1

Kv2.1 = molecular target: T10, Kv2.1 (Homo sapiens, UniProt Q14721); assay: cell-based; settings: 100% = no change, <100% = inhibition
T10 construct: host or cells: HEK293 or CHO
How it was run: as §1

Cav2.2 = molecular target: T11, Cav2.2 (Homo sapiens, UniProt Q00975); assay: cell-based; settings: 100% = no change, <100% = inhibition
T11 construct: host or cells: HEK293 or CHO
How it was run: as §1

NR2B = molecular target: T12, NR2B (Homo sapiens, UniProt Q13224); assay: Ion channel panel (IonWorks Barracuda): NR2B; assay type: cell-based; settings: 100% = no change, <100% = inhibition
T12 construct: host or cells: HEK293 or CHO
How it was run: as §1

Kir2.1 = molecular target: T13, Kir2.1 (Homo sapiens, UniProt P63252); assay: Ion channel panel (IonWorks Barracuda): Kir2.1; assay type: cell-based; settings: 100% = no change, <100% = inhibition
T13 construct: host or cells: HEK293 or CHO
How it was run: as §1

GABA = assay: Ion channel panel (IonWorks Barracuda): GABA; assay type: cell-based; settings: 100% = no change, <100% = inhibition
How it was run: as §1

hERG = hERG (Homo sapiens, UniProt Q12809); assay: in vitro; settings: 100% = no change, <100% = inhibition
How it was run: as §1

Nav1.5 = Nav1.5 (Homo sapiens, UniProt Q14524); assay: in vitro; settings: 100% = no change; for Activity of Nav1.5 with peptide, expressed as a percentage of the reference compound: peptide at 0.2 μM; for Activity of Nav1.5 with peptide (percentage of the reference compound): peptide at 20 μM
How it was run: as §1

α4β2 = molecular target: T14, α4β2 (Homo sapiens, UniProt P17787+P43681); assay: Ion channel panel (IonWorks Barracuda): α4β2; assay type: cell-based; settings: 100% = no change, <100% = inhibition
T14 construct: host or cells: HEK293 or CHO
How it was run: as §1

Nav1.7 = molecular target: T15, Nav1.7 (Homo sapiens, UniProt Q15858); assay: cell-based; assay type: cell-based; settings: 100% = no change; for Activity of Nav1.7 with peptide, expressed as a percentage of the reference compound: peptide at 0.2 μM; for Activity of Nav1.7 with peptide (percentage of the reference compound): peptide at 20 μM
T15 construct: host or cells: HEK293 or CHO

[1] = first of two Nav1.5 columns (probably TP1)
[2] = second of two Nav1.5 columns (probably TP2)
[3] = first of two Nav1.7 columns (probably TP1)
[4] = second of two Nav1.7 columns (probably TP2)

T15 sequence (Q15858 whole entry): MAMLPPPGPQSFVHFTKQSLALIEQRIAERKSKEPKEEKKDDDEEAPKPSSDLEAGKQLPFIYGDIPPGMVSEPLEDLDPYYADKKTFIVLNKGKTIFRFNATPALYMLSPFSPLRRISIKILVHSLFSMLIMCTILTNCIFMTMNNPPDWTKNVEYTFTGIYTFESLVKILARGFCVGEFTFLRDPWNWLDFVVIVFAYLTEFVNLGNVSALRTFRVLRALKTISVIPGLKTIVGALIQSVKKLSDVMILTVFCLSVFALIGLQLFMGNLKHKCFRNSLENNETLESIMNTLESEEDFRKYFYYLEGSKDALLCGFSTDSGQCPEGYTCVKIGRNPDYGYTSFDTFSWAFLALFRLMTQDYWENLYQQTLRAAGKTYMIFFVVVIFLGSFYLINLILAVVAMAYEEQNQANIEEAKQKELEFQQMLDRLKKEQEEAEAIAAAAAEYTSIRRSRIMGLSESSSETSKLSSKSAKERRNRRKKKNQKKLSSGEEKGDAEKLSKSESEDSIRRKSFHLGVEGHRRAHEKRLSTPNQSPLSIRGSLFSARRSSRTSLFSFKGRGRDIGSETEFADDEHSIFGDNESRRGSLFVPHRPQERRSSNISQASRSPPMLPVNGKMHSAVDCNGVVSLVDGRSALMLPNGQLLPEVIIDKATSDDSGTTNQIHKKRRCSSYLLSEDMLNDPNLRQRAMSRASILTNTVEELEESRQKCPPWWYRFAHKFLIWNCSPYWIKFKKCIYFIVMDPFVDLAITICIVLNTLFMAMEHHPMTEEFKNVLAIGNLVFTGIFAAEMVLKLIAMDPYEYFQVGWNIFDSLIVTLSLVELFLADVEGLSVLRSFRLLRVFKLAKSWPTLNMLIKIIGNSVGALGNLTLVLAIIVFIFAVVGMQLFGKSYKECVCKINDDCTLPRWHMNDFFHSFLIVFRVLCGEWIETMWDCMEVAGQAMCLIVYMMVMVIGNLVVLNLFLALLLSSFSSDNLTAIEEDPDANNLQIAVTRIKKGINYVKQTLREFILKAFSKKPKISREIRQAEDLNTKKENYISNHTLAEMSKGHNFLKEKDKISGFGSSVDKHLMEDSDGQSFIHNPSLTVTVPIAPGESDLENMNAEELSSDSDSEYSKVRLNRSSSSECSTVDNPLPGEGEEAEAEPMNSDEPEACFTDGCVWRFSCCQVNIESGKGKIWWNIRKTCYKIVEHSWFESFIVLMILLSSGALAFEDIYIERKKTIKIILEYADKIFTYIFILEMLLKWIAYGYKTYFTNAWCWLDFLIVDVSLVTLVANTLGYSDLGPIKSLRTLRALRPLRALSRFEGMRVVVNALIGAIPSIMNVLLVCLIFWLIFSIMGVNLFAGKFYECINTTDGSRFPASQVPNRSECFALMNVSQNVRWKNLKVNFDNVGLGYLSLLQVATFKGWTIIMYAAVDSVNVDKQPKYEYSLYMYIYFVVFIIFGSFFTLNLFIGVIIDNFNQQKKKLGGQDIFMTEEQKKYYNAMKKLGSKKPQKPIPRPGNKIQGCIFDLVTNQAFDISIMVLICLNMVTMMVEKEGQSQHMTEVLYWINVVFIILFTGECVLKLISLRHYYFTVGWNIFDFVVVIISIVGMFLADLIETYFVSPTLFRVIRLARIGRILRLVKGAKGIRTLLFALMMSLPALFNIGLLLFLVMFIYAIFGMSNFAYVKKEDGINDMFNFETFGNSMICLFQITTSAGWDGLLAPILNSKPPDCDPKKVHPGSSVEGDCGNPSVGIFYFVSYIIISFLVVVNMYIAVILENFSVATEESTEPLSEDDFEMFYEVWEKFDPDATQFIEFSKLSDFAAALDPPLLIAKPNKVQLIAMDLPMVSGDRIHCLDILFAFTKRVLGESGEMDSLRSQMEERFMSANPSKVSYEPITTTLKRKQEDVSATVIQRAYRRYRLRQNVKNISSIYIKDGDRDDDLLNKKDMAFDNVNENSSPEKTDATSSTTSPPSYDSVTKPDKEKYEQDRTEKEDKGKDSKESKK
Chain of Nav1.5 (Q14524 whole entry): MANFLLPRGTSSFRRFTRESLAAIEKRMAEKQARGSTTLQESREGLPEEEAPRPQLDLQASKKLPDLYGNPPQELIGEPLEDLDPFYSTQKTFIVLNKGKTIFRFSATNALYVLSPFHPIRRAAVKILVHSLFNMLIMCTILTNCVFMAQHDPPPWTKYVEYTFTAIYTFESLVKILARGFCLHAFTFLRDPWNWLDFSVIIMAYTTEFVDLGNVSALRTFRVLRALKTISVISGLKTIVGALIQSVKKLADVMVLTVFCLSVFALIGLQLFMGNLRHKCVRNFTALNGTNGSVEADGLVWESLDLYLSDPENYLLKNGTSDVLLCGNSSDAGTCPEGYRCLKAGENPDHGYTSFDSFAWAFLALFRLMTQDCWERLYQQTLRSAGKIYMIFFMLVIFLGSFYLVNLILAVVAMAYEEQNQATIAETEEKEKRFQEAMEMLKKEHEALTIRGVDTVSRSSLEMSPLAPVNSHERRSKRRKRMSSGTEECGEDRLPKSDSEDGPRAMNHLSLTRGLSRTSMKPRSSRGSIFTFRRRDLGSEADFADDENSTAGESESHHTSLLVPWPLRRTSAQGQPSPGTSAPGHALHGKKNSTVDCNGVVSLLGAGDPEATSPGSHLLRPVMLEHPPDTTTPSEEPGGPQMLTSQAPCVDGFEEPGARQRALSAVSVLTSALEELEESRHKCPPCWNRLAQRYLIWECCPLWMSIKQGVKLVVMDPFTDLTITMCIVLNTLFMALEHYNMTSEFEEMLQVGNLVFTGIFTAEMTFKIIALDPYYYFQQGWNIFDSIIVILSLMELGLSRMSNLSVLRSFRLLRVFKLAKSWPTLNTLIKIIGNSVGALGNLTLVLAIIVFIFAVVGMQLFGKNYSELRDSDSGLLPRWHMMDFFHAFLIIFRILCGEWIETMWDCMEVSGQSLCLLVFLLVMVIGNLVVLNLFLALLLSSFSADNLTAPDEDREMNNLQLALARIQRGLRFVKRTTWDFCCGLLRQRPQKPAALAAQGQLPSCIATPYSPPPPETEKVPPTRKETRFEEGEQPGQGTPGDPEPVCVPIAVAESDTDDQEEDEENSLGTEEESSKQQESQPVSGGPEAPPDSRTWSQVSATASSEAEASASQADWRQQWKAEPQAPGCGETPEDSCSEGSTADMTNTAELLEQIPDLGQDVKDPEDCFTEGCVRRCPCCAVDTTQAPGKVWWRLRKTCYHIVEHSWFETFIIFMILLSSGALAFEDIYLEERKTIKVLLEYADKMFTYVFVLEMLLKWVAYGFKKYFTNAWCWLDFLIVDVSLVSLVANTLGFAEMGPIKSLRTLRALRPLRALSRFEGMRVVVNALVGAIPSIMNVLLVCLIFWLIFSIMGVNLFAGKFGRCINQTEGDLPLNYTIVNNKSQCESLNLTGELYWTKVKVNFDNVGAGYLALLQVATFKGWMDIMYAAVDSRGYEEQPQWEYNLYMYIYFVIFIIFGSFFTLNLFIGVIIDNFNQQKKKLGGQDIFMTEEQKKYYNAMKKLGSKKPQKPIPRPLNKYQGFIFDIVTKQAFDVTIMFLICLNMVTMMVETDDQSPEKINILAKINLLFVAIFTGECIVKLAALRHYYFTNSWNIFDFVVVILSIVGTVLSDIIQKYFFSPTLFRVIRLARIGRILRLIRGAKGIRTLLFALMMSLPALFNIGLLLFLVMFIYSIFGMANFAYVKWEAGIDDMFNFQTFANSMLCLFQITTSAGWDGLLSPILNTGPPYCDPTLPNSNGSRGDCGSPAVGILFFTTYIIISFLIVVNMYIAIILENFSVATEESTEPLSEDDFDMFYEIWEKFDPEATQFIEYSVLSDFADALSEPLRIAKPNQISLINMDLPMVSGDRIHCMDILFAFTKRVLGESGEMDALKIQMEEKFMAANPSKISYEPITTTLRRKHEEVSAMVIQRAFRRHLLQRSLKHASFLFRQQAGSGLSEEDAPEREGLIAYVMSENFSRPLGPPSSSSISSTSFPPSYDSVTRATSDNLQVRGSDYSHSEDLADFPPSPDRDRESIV
T6 sequence (P16389 whole entry): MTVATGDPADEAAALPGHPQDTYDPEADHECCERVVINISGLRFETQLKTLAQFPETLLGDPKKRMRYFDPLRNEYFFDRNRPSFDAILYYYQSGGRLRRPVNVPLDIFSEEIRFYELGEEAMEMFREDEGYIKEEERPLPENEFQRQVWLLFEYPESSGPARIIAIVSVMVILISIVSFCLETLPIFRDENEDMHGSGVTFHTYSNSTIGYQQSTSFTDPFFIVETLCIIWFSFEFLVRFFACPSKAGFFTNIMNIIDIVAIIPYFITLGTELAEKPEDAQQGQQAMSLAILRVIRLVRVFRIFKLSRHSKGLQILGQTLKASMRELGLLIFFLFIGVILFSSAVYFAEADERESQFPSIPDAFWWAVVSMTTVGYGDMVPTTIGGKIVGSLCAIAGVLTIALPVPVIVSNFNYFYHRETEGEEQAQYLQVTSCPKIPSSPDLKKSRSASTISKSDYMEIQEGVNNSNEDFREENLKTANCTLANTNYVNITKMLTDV
T8 sequence (Q09470 whole entry): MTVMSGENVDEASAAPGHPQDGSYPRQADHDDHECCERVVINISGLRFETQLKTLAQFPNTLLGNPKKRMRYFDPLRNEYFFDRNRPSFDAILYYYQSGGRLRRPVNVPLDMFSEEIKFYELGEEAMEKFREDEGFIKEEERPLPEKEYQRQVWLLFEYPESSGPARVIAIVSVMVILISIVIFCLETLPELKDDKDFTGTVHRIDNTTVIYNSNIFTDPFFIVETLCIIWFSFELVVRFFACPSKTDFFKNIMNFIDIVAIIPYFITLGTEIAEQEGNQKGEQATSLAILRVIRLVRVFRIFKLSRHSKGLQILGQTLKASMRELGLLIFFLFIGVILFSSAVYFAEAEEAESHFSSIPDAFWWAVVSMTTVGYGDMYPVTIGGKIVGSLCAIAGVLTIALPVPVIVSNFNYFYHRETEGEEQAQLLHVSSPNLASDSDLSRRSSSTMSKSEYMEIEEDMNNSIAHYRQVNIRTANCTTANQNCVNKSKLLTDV

## 13 (GSQKILSNRCNNSSECIPHCIRIFGTRAAKCINRKCYCYP) [compound 13]
TRPV1; peptide at 0.2 μM
  Activity of TRPV1 with peptide, expressed as a percentage of the reference compound: 97%
TRPV1; peptide at 20 μM
  Activity of TRPV1 with peptide (percentage of the reference compound): 88%
α3β4; peptide at 0.2 μM
  Activity of a3b4 with peptide, expressed as a percentage of the reference compound: 103%
α3β4; peptide at 20 μM
  Activity of a3b4 with peptide (percentage of the reference compound): 83%
NR2A; peptide at 0.2 μM
  Activity of NR2A with peptide, expressed as a percentage of the reference compound: 94%
NR2A; peptide at 20 μM
  Activity of NR2A with peptide (percentage of the reference compound): 108%
5HT3a
  Activity of 5HT3a with peptide (percentage of the reference compound): 84%
  Activity of 5HT3a with peptide, expressed as a percentage of the reference compound: 96%
TRPA1; peptide at 0.2 μM
  Activity of TRPA1 with peptide, expressed as a percentage of the reference compound: 129%
TRPA1; peptide at 20 μM
  Activity of TRPA1 with peptide (percentage of the reference compound): 113%
Kv1.2; peptide at 0.2 μM
  Activity of Kv1.2 with peptide, expressed as a percentage of the reference compound: 88%
Kv1.2; peptide at 20 μM
  Activity of Kv1.2 with peptide (percentage of the reference compound): 40%
Kv1.3; peptide at 0.2 μM
  Activity of Kv1.3 with peptide, expressed as a percentage of the reference compound: 68%
Kv1.3; peptide at 20 μM
  Activity of Kv1.3 with peptide (percentage of the reference compound): 64%
Kv1.1; peptide at 0.2 μM
  Activity of Kv1.1 with peptide, expressed as a percentage of the reference compound: 107%
Kv1.1; peptide at 20 μM
  Activity of Kv1.1 with peptide (percentage of the reference compound): 79%
Cav2.1; peptide at 0.2 μM
  Activity of Cav2.1 with peptide, expressed as a percentage of the reference compound: 109%
Cav2.1; peptide at 20 μM
  Activity of Cav2.1 with peptide (percentage of the reference compound): 100%
Kv2.1; peptide at 0.2 μM
  Activity of Kv2.1 with peptide, expressed as a percentage of the reference compound: 104%
Kv2.1; peptide at 20 μM
  Activity of Kv2.1 with peptide (percentage of the reference compound): 116%
Cav2.2; peptide at 0.2 μM
  Activity of Cav2.2 with peptide, expressed as a percentage of the reference compound: 121%
Cav2.2; peptide at 20 μM
  Activity of Cav2.2 with peptide (percentage of the reference compound): 100%
NR2B; peptide at 0.2 μM
  Activity of NR2B with peptide, expressed as a percentage of the reference compound: 122%
NR2B; peptide at 20 μM
  Activity of NR2B with peptide (percentage of the reference compound): 117%
Kir2.1; peptide at 0.2 μM
  Activity of Kir2.1 with peptide, expressed as a percentage of the reference compound: 97%
Kir2.1; peptide at 20 μM
  Activity of Kir2.1 with peptide (percentage of the reference compound): 98%
GABA; peptide at 0.2 μM
  Activity of GABA with peptide, expressed as a percentage of the reference compound: 107%
GABA; peptide at 20 μM
  Activity of GABA with peptide (percentage of the reference compound): 93%
hERG; peptide at 0.2 μM
  Activity of hERG with peptide, expressed as a percentage of the reference compound: 89%
hERG; peptide at 20 μM
  Activity of hERG with peptide (percentage of the reference compound): 67%
Nav1.5; [1]
  Activity of Nav1.5 with peptide, expressed as a percentage of the reference compound: 98%
  Activity of Nav1.5 with peptide (percentage of the reference compound): 97%
Nav1.5; [2]
  Activity of Nav1.5 with peptide, expressed as a percentage of the reference compound: 95%
  Activity of Nav1.5 with peptide (percentage of the reference compound): 101%
α4β2; peptide at 0.2 μM
  Activity of a4b2 with peptide, expressed as a percentage of the reference compound: 97%
α4β2; peptide at 20 μM
  Activity of a4b2 with peptide (percentage of the reference compound): 80%
Nav1.7; [3]
  Activity of Nav1.7 with peptide, expressed as a percentage of the reference compound: 61%
  Activity of Nav1.7 with peptide (percentage of the reference compound): 71%
Nav1.7; [4]
  Activity of Nav1.7 with peptide, expressed as a percentage of the reference compound: 66%
  Activity of Nav1.7 with peptide (percentage of the reference compound): 62%
